Each block holds one binder with its values, some of them ahead of it.
Experiments:
human RON receptor [1] = target: T1, human RON receptor (human, UniProt Q04912 25-1400); assay: cell-based or functional assay
human RON receptor [2] = target: T1, human RON receptor; assay: flow cytometry on HT29 cells, FITC-coupled anti-human IgG1 secondary
Procedure: Colon cancer HT29 cell line expressing ˜19,000 RON molecules per cell were used as the model. Mouse PCM5B14 was used as the positive control. Individual H5B14 clones at different concentrations were incubated with cells followed by addition of FITC-coupled anti-human IgG1 antibody. Fluorescence intensities from individual samples were analyzed using the BD flow cytometer. Results in FIG. 2 are the dose-dependent specific binding of individual H5B14s. […] Results in Table 1 show the individual values reflecting the binding affinity and sensitivity of individual H5B14 clones to human RON receptor.

Internalization efficacy of cell surface RON (EC50, hours), Breast T-47D (human RON receptor [1]): 23.5 h
Internalization efficacy of cell surface RON (EC50, hours), Colon HT-29 (human RON receptor [1]): 11 h
Internalization efficacy of cell surface RON (EC50, hours), Lung H358 (human RON receptor [1]): 7.47 h
Internalization efficacy of cell surface RON (EC50, hours), Pancreatic L3.6p1 (human RON receptor [1]): 14.1 h
B1: Mouse Zt/g4 (antibody, from another filing, V domains shown)
VH: EVQLQQSGAELVKPGASVKLSCTTSGFNIIDTYIHWVNQKPDQGLEWIGRIDPADGNRKSDPKFQVKATITVDTSSNTAYLQLSSLTSGDTAVYYCARGYGNLNAMDSWGQGTSVTVSS
VL: DIQMNQSPSSLSASLGDTITITCHASQNINVWLNWYQQKPGNIPKLLIYKASNLHTGVPSRFSGSGSGTGFTLTISSLQPEDIATYYCQQGQSYPLTFGGGTKLEIK

Internalization efficacy of cell surface RON (EC50, hours), Breast T-47D (human RON receptor [1]): 8.26 h
Internalization efficacy of cell surface RON (EC50, hours), Colon HT-29 (human RON receptor [1]): 5.33 h
Internalization efficacy of cell surface RON (EC50, hours), Lung H358 (human RON receptor [1]): 7.94 h
Internalization efficacy of cell surface RON (EC50, hours), Pancreatic L3.6p1 (human RON receptor [1]): 8.17 h
EC50 (human RON receptor [2]): 2.22 µg/mL
LogEC50 (human RON receptor [2]): 0.346 log(µg/ml)
B2: Humanized PCM5B14 H2L4 (IgG1/κ, designated as H5B14) (antibody, V domains shown)
VH: QVQLVQSGAEVKKPGATVKISCKVSGYTFTDYHMDWVQQAPGKGLEWMGDINPNNGGAIYNQKFKGRVTITADTSTDTAYMELSSLRSEDTAVYYCARSHYDYAGGAWFAYWGQGTLVTVSR
VL: EIVMTQSPGTLSLSPGERATLSCKSSQSLLFSGNQKNYLAWYQQKPGQAPRLLIYWASTRASGIPDRFSGSGSGTDFTLTISRLEPEDFAVYYCQQYYSFPRTFGQGTKLEIKR
notes: also called H5B14H2L4; Humanized 5B14
